Here are results for 17 sequences from the DeepSol protein solubility set.

The series in a line: soluble on expression in E. coli; label from the status in PepcDB or PDB records.
“MAHHHHHHMSVRSGQFNYDAVARESPVGFTKITEGTTAVLEPPPKKKTCTSSAAPAPASNLSDEEADNQLVDQAVFYNPAQVVNRDLSISVIEVFSRLRLTEPRRRGGTNEGITILEALSATGLRAIRYYKEITNVRYIIANDMDADAVDCIVRNCAYNGVPVQYPTLMANMPAAAIELYAGEAEAEKGESATGASPRVGVRAGGAILPNLDDANDLMFRLAMNSNAHPGKRVCLVDAPAETSATASLRPLLQQELMDVVDLDPYGSASPFLDGAFRCIKEGGLMLVTSTDSAILCGNFADTAHAKYSSMPYKAAHCHEAAVRTLLACVERVANRHQKFIVPLLSLHIDFYVRCFFRVYKQPAETKLSACKLGYQLQCSSCSAFWVRPMATARQPRPSRQERRRQRRALAGRVNSDADEAEEEGKTAEGAAEASRAHARPRRLSKRVRDGSDDDEAVAHDVDGVRTEVYPASPSRHSHPKITPLTLQQMPSAASATSTTAATACPVCGSSIVLSGPLYAAPTQNCEFLQQLLALLHERASEGRLNAEARITGLVRIALEELPDCPLFYLLPDVASYVRVRCPPTPCIVGALARLGYRCSQVHCAAAGLKTDCPPEVLFRVMLQWKTVQDTLDPVGEATIEDGADKSKKKAPAASTAPRSLLVTPLAEADFTYDKAHDFRGRVTGVAKFVPNASGWGPRRRHRGAAAVPEAVECGNGEDNDGGSGEA”: the “soluble on expression in E. coli” value was “not soluble”.

On to “MGHHHHHHSHMFDAAFDPVLTVNSGDSVTVECVSGGVEVMPPAESPYAIPSALQAIHDSNPPRIGPHILTGPIAIAGAEPGDILEVRIEAIEPNNDWGYCAVRPLAGTLPEDFPERYVSHIAVDAQRGVCKPEWGPELPLAPFFGTMGVAPPAKYGRLSSREPREHGGNMDNKELVAGSTLYLPVWVPGANFSVGDGHGRQGDGEVCVNALEMGLTGTFTFVLHKKANGAADIAPFAWPRAETPTHYVLMGFHEDLDLAMKQALRQTIDFITARSNLTRVQAYQFCSLAVDFRVTQTVNGEKGVHALLSKGLLF”, for which the “soluble on expression in E. coli” value is given as “not soluble”.

In the case of “MPTFRSNIVVFNLIARRAFTTTSTKNMGFVEKVRLLDYWKIQDSALQSEFPRSRLVLMVDRRLLVTKDQPDVQMVELSFDDLKQRLGEYGLQFDLSNSCLLDALSTDVDMIPLFGTSIDAADPPEDSPISKKEVLKQLGNSLGGRFTDIRMAMLTMREERQRNLLAKFQSLTKWASIYRRCPKCAAALKMRSSKSGAECVTCQRVYYPTFSPVSITLITDPTNEHALLVRHRGSAGGVFTAVAGFAHSGESMAECARREIAEEVGIEVDSIRSLDMSQPWPMPDSSLMIAHVAVAKIDQKISVCPDELETAQWFTRHQVKEALTTTLADPLLKNLPRTLDDRQTLHYIPPAGAIAHQMIRQWVDGKLENHNSRI”, the “soluble on expression in E. coli” value is “not soluble”.

Take “MSLNPKILEKWMAEGQVTLPQVLVKNYATIGLNEVELVLLLQIQSFAAEAEFFPSMEMLTNRTTLPLEETIKTMDSLLKKGVIAIEQSQDNSRMISEQYNLAPLWGKLVALYENKEADSKHEKELEKQTSLYTLFEAEFGRPLSPMEAEMLSAWVEQDRTSPDLIKEALKEAVISQKLNFRYIDRILLNWSKQGVKTIEDAKRVAEEFHQNGRTSQAINQTEVKKSAGSIPLYDWLEKRKGEGHHHHHH”: the “soluble on expression in E. coli” value is on record as “soluble”.

As to “MLAPERIHPALWRATQLAHGPTRKLPTGYADLSAQLPGGGWPLGALVELLLPQPGSGEIRLLRPALAQLEARRAIALVQPPHAPHIASWASWRLDPRQLLWVAPERPADALWAAEQILKAGSCAALLCWLPQVRPESLRRLHLAAQGGDALFVALRPAAAEQHASPAVLRLALAPAPGGLSIRIVKRRGPACEHPVHVGLEAGAGLSVFPAPHAPLDRRLPAQPVAGRRTPALVSLEHHHHHH”, the “soluble on expression in E. coli” value is “not soluble”.

Regarding “MKSKFMIHQIFSNYCSKNTRLHTLLYKTFVRPILEYGTEVSSPLKKQDIKAIESVQNSFTRKLYSRQKGKYIRTDDPDYKSAIQRNELFNLSTLEARRKAIDKVFLSKMLVNKVDIDTDQFFKIDKNSKTRTKTKFIWGKCKTKLRRHFFTNRVLSSIKISAMNLILAPHVLCMFNTFTHYSSP”, the “soluble on expression in E. coli” value is listed as “not soluble”.

For “MQGMREIKRRIRSVKNTRQITKAMKMVAAAKLRRAQETAENARPYADKIKEVISSIAAGTKDFSHPMLEARPVKKTGYMVITSDRGLAGPYNANILRLVSKTIEERHQSKDEYVIFAVGRKGRDFFKKRGYPVVEEVTGISDTPSLTEIQDIAQSAIGMFADETFDKLTIFYNEFVSPIVQRPVEKQLLPLTSEEVLDGPVSAYEYEPDSESVLEVLLPKYAETLIYSALLDAKASEFGARMTAMGNATDNATEMLETLTLQFNRARQAAITQEIAEIVAGANALR”, the “soluble on expression in E. coli” value is reported as “soluble”.

Regarding “MKICAVVVTYNRKDLLVECLEALRRQTGPLDAIYIIDNASTDGTPHLLMEGGYIDDPDGSVKNLPDHHGRSLKIVYVRLNENTGGAGGFYKGVRRAFHDEYDWIWLMDDDVEPEEYTLEKLLKASERIPEDVSAVAPVRFFQGSLFISETKTFNFRNPLKHFTYDFITDDDLKEEYFKISAISFEGLLIKREAIERIGFPDKSLFIIADDTDYAIRLRDYGPIYMVSGARLIKKVAAEPDFNWKGFYHLRNVIYLDRKYGENILVRYLRPLRTLIIVTYQCLKYKPSGFKYLLKAFWEGYTLKRGKTVKPGEFLEHHHHHH”, the “soluble on expression in E. coli” value is “soluble”.

Take “MARLNVNPTRMELSRLKKQLTTATRGHKLLKDKQDELMRRFIALVKENNELRIQVEQEVTDALSNFVLANATLNEAFIEELVAIPAEKVELEIIEQNILSVPVPKMIFDYDESVQEAPLDYGYVNSNSELDQAFAKISSILPKLLALANVEKTCQLLSKEIEKTRRRVNALEYMTIPQLEETIYYIQMKLEENERGEITRLIKIKSMNKENLEHHHHHH”: the “soluble on expression in E. coli” value is “not soluble”.

As for “MTFAWGRGSHGGAGMRIVQITDTHFSPTKAHFNGNWAPLAAWIEQSGADLVIHTGDLSVDGADRDDDIAFCMDLMREISAPMLLVPGNHDVGHLPGSLQPVNAGRLERWRRLVGPDYWMEDAGSWRLIGLDSLLMGFDDAEEEAQFDWLRTVLESRGGRRVALFAHKPLFVDAPGEGDTGYWSVRPAQRQRLYDLIATHDVALFASGHLHRAWQGKYENTSLVWGPSAAFVVGDMERDMPGERLLGAVIHQFSDTVTSEIVAIPGMTAYVLDDVVAEVYPHEAHKARKRVASLEHHHHHH”, the “soluble on expression in E. coli” value is recorded as “not soluble”.

As to “MGSDKIHHHHHHMTTKLDQLTSWLKERKITEVECLISDLTGIARGKISPTNKFIAEKGMRLPESVLLQTVTGDYVEDDIYYDLLDPADIDMVCRPDENAVFLVPWAIEPTAMVIHDTFDKLGNPIELSPRNILKRVLKMYADKGWRPIVAPEMEFYLTKRSDDPDYPLQAPVGRSGRQETGRQSFSIDAANEFDPLFEDMYDWCEAQGLDLDTLIHEEGTAQMEINFRHGDALDLADQILVFKRTMREAALKHNVAATFMAKPMTGEPGSAMHLHQSIVDVKTGKNIFSNADGTMSELFLHHIGGLQKFIPEVLPLFAPNVNSFRRFLPDTSAPVNVEWGEENRTVGLRVPDSSPENRRVENRLAGADANPYLALAASLLCGYIGMVEGIKPSAQVKGRGYERRNLRLPLTIEAALERMENCKPLEQYLGSKFISGYVAVKRAEHENFKRVISSWEREFLLLSV”, the “soluble on expression in E. coli” value is listed as “not soluble”.

Regarding “MSSQISEIEQEQLIEKLEIFKIHGRDKRGRKILRIIGKFFPARFLSLDVLKKYLEEKIFPRLGRKPFAVLYVHTGVQRSENFPGISALRAIYDAIPVNVRDNLQEVYFLHPGLQSRLFLATCGRFLFSGGLYGKLRYISRVDYLWEHVRRNEIEMPEFVYDHDDDLEYRPMMDYGQESDHARVFAGAAVDSSVSSFSMRCIS”, the “soluble on expression in E. coli” value is recorded as “soluble”.

Turning to “MIAVSFKCRCQILRRLTKDESPYTKSASQTKPPDGALAVRRQSIPEEFKGSTVVELMKKEGTTLGLTVSGGIDKDGKPRVSNLRQGGIAARSDQLDVGDYIKAVNGINLAKFRHDEIISLLKNVGERVVLEVEYELPPVSVQGSSVIFRTVEVTLHKEGNTFGFVIRGGAHDDRNKSRPVVITCVRPGGPADREGTIKPGDRLLSVDGIRLLGTTHAEAMSILKQCGQEAALLIEYDVSVMDSVATASGPLLVEVAKTPGASLGVALTTSMCCNKLVIVIDKIKSASIADRCGALHVGDHILSIDGTSMEYCTLAEATQFLANTTDQVKLEILPHHQTRLALKGPDHAALVSSSFSPTSMSAYSLSSLNMGTLPRSLYSTSPRGTMMRRRLKKKDFKSSLSLASSTVGLAGQVVHTETTEVVLTADPVTGFGIQLQGSVFATETLSSPPLISYIEADSPAERCGVLQIGDRVMAINGIPTEDSTFEEASLLLRDSSITSKVTLEIEFDVAESVIPSSGTFHVKLPKKHNVELGITISSPSSRKPGDPLVISDIKKGSVAHRTGTLELGDKLLAIDNIRLDNCSMEDAVQILQQCEDLVKLKIRKDEDNSDEQESSGAIIYTVELKRYGGPLGITISGTEEPFDPIIISSLTKGGLAERTGAIHIGDRILAINSSSLKGKPLSEAIHLLQMAGETVTLKIKKQTDAQSASSPKKFPISSHLSDLGDVEEDSSPAQKPGKLSDMYPSTVPSVDSAVDSWDGSAIDTSYGTEGTSFQASGYNFNTYDWRSPKQRGSLSPVTKPRSQTYPDVGLSYEDWDRSTASGFAGAADSAETEQEENFWSQALEDLETCGQSGILRELEATIMSGSTMSLNHEAPTPRSQLGRQASFQERSSSRPHYSQTTRSNTLPSDVGRKSVTLRKM”, the “soluble on expression in E. coli” value was “soluble”.

On to “MLEDLSQGKGSNHEKRKMESTAQITEEDSKLDEVVGLQKQICDLGTELTRQSSWWCIAHKDLQSQIDALIKENQEIRAELKTLKKQDAEATKACIGSPTPARASNTLPVYIKIEGTDSERTTSWDERDELSGSPPNRSTMATGGTDSQDEMLSFTSVDEKVIHMSSKFLQRSLGRMSPEPLSDSTFLDTESLADIWSSNPETSDGELLLHAQASRVIPCFSPNALWVQNIPTKSRAPKEIQQTSDTTKTDETKEKQHPNGKVERMLSDGRTIITFPNGTRKEISADKKTTLIRFFNGDMKKIKSNQKVIYYYADAQTMHTTYPDGVEVVQFPNKWTEKFYPDGSKETVFPDGTVKRLKDGCEETVFPDGTFVTVKRNGDKTIMFSNGEKEIHTARFKRKEFPDGTTKTVYCNGCQETKYASGRVRVKDEKGTVILDWK”, for which the “soluble on expression in E. coli” value was “not soluble”.

For the sequence “MGSDKIHHHHHHMKAYLVGLYTLTPTHPGSGTELGVVDQPIQRERHTGFPVIWGQSLKGVLRSYLKLVEKVDEEKINKIFGPPTEKAHEQAGLISVGDAKILFFPVRSLKGVYAYVTSPLVLNRFKRDLELAGVKNFQTEIPELTDTAIASEEITVDNKVILEEFAILIQKDDKGILESVVKAIEQAFGNEMAEKIKGRIAIIPDDVFRDLVELSTEIVARIRINAETGTVETGGLWYEEYIPSDTLFYSLILVTPRAKDNDMALIKEVLGKINGKYLQIGGNETVGKGFVKVTLKEVTNNGGTHAK”, the “soluble on expression in E. coli” value is listed as “not soluble”.

In the case of “MSLASRRSKLIAVVVPQINNNMFVDTIQSLSDELARRGYHILLCVAGYTEQTEAELVATLLSRRPDGVVLTGIHHTIELKKVILNAAIPVVEIWDLTPTPLDMLVGFSHEKVGQATGEYLLSKGYRRPGLLWTADRRAAQRKQGLCSVLQRHAIHAVPQVDVPLPASLSLGRSGLSQLFDEGTFDVIVCSSDTLAQGAMMEAESRGLRIPHDLAVIGFGDLDFAASNRPSITTVSVDRRAIGQRAATLLADRIEQKPCAEAIVDIGFHLIGRESAEGHHHHHH”, the “soluble on expression in E. coli” value is listed as “not soluble”.

As for “MSERLYYFVIVGRDDRVLYDLLYPASLSELDWRTSSELSSPAERGDFEPHHFIPSIQVLLQFVAYSALDHIEEKYWLTSARSLKHIFRFRDWSASVQLTPNAATRFVLVHGASDDASRNVRAFLHAVYEAYVPHVVCNPFQEEDAPITSKRFHEVAKNLAKRYFSG”, the “soluble on expression in E. coli” value was “not soluble”.
